The target in data set [1] is DEVD-E2.
Data set [2] deals with T1, Abz-VDVADSA-Dap (Dnp).
T1 chain: VDVADSA

The target in data set [3] is T2, Abz-VDVADRA-Dap (Dnp).
T2 chain: VDVADRA

The target of data set [4] is T3, Abz-VDVADLA-Dap (Dnp).
T3 chain: VDVADLA

Data set [5] addresses T4, Abz-VDVADQA-Dap (Dnp).
T4 chain: VDVADQA

Data set [6] deals with T5, Abz-VDVADGA-Dap (Dnp).
T5 chain: VDVADGA

Data set [7] deals with T6, Abz-VDVADFA-Dap (Dnp).
T6 chain: VDVADFA

For data set [8], the target named is T7, Abz-VDVADMA-Dap (Dnp).
T7 chain: VDVADMA

Data set [9] addresses T8, Abz-VDVADKA-Dap (Dnp).
T8 chain: VDVADKA

Data set [10] has as its target T9, Abz-VDVADNA-Dap (Dnp).
T9 chain: VDVADNA

Data set [11] deals with T7AC-6H-GSG-VDVAD-hFGF-2.
Data set [12] has as its target T10, Abz-VDVADEA-Dap (Dnp).
T10 chain: VDVADEA

Data set [13] deals with T11, Abz-VDVADPA-Dap (Dnp).
T11 chain: VDVADPA

Data set [14] has as its target T12, Abz-VDVADDA-Dap (Dnp).
T12 chain: VDVADDA

The target of data set [15] is T13, Abz-VDVADIA-Dap (Dnp).
T13 chain: VDVADIA

Data set [16] has as its target T14, Abz-VDVADCA-Dap (Dnp).
T14 chain: VDVADCA

Data set [17] concerns the target T15, Abz-VDVADAA-Dap (Dnp).
T15 chain: VDVADAA

Data set [18] has as its target T16, Abz-VDVADVA-Dap (Dnp).
T16 chain: VDVADVA

The target in data set [19] is T17, Abz-VDVADTA-Dap (Dnp).
T17 chain: VDVADTA

In data set [20] the target is T18, Abz-VDVADYA-Dap (Dnp).
T18 chain: VDVADYA

For data set [21], the target named is T19, Abz-VDVADHA-Dap (Dnp).
T19 chain: VDVADHA

Data set [22] addresses T20, Abz-VDVADWA-Dap (Dnp).
T20 chain: VDVADWA

The target of data set [23] is T7AC_6H_GSGSGSG_VDVAD-hFGF2.
In data set [24] the target is T7AC-6H-VDVAD-hFGF2.
For data set [25], the target named is T7AC_6H_GSG_VDSAD-hFGF2.

B1: Caspase-2 (human), recombinant, active, Enzo Life Sciences (protein)
chain: GPVCLQVKPCTPEFYQTHFQLAYRLQSRPRGLALVLSNVHFTGEKELEFRSGGDVDHSTLVTLFKLLGYDVHVLCDQTAQEMQEKLQNFAQLPAHRVTDSCIVALLSHGVEGAIYGVDGKLLQLQEVFQLFDNANCPSLQNKPKMFFIQACRGDETDRGVDQQDGKNHAGSPGCEESDAGKEKLPKMRLPTRSDMICGYACLKGTAAMRNTKRGSWYIEALAQVFSERACDMHVADMLVKVNALIKDREGYAPGTEFHRCKEMSEYCSTLCRHLYLFPGHPPT
In the case of B1, the “cleavage of DEVD-E2 compared with VDVAD-E2” value in data set [1] is listed as “cleaved DEVD-E2 only 44 times slower than VDVAD-E2”.

B2: cp caspase-2 (6H_cpCasp2D) (protein)
chain: MHHHHHHGKNHAGSPGCEESAAGKEKLPKMRLPTRSDMICGYACLKGTAAMRNTKRGSWYIEALAQVFSERACDMHVADMLVKVNALIKDREGYAPGTEFHRCKEMSEYCSTLCRHLYLFPGHPPTGSGPVCLQVKPCTPEFYQTHFQLAYRLQSRPRGLALVLSNVHFTGEKELEFRSGGDVDHSTLVTLFKLLGYDVHVLCDQTAQEMQEKLQNFAQLPAHRVTDSCIVALLSHGVEGAIYGVDGKLLQLQEVFQLFDNANCPSLQNKPKMFFIQACRGDETDRGVDQQD
In the case of B2, the KM turned out to be 200 µM in [2]; 58 µM in data set [3]; 290 µM in [4]; 120 µM in data set [5]; 110 µM in data set [6]; 60 µM in data set [7]. The KM was 380 µM in [8]; 120 µM in data set [9]; 78 µM in data set [10]; 639 µM in data set [11]; 170 µM in data set [12]; 300 µM in data set [13]. Moreover, the KM came to 160 µM in [14]; 71 µM in data set [15]; 38 µM in data set [16]; 89 µM in data set [17]; 64 µM in [18]; 75 µM in data set [19]. In addition, the KM in data set [20] turned out to be 340 µM; in [21], 120 µM; in data set [22], 46 µM. The “cleavage of DEVD-E2 compared with VDVAD-E2” value in data set [1] is given as “processed 140 times slower than VDVAD-E2”.

B3: T7AC_6H_mS9ProD (protein)
chain: MLEDPERNKERKEAELQAQTAEQHHHHHHGKNHAGSPGCEESAAGKEKLPKMRLPTRSDMICGYACLKGTAAMRNTKRGSWYIEALAQVFSERACDMHVADMLVKVNALIKDREGYAPGTEFHRCKVMSEYCSTLCRHLYLFPGHPPTGSGPVCLQVKPCTPEFYQTHFQLAYRLQSRPRGLALVLSNVHFTDEKELEFRSGGDVDHSTLVTLFKLLGYDVHVLCDQTAQEMQEKLQNFAQLPAHRGTDSCIVALLSHGVEGAIYGVDGKLLQLQEVFQLFDNANCPSLQNKPKMFFIQACRGEETDRGVDQQD
For the protein B3, the KM in data set [2] turned out to be 180 µM; in data set [3] it was 47 µM; in data set [4], 400 µM; in [23] it was 252 µM; in data set [5], 120 µM; in data set [6] it was 65 µM. Moreover, the Michaelis constant (KM) in [7] stood at 120 µM; in data set [8], 480 µM; in data set [9], 79 µM; in data set [10] it was 130 µM; in data set [24] it was 529 µM; in data set [11], 329 µM. Moreover, the KM came to 160 µM in data set [12]; 100 µM in data set [13]; 190 µM in [14]; 110 µM in data set [15]; 865 µM in [25]; 100 µM in [17]. Also, the KM in [18] was determined as 100 µM; in [19], 120 µM; in [20], 900 µM; in [21] it was 170 µM; in data set [22], 53 µM.

These data come from patent US20220380739.
